Marks after values point to notes of the source that are not given here. Each block holds one molecule with its values, some of them ahead of it.
Experiments:
GL-261 medullary glioma = conditions: vehicle mOS 16 days
Excerpt: Ad-RTS-hIL-12 (Ad) is a recombinant, adenoviral-delivered, gene therapy for expression of interleukin-12 (IL-12) under the control of an orally administered activator ligand, veledimex (V), acting in concert with a ligand-inducible gene switch (also referred to as “RTS®”).

[1] = Phase 1 Ad+V with nivolumab in rGBM: safety (adverse events); format: in vivo, human; conditions: by relatedness
Experimental: (§1) Ad was administered by intratumoral injection (using a dose of 2×10^11 vp (2e11 vp)) along with daily veledimex (V) (at doses of 10-20 mg) QDx15 PO with nivolumab intravenous infusions (at doses of 1-3 mg/kg) at Day (−)7 (i.e., 7 days prior to administration of Ad+V), at Day 15 (after administration of Ad+V), then Q2W (i.e., once every 2-weeks).

IL-12 = assay: Phase 1 Ad+V with nivolumab in rGBM: serum IL-12; format: in vivo, human
Experimental: as §1

[2] = system: cytotoxic T cells and Tregs in peripheral blood; assay: Phase 1 Ad+V with nivolumab in rGBM: peripheral blood flow cytometry; format: in vivo, human; conditions: after nivolumab alone
Experimental: Methods: An open label, dose escalation Phase 1 study evaluating safety and tolerability of local, inducible IL-12 expression in combination with nivolumab in adult subjects with recurrent glioblastoma (rGBM) was commenced. Ad was administered by intratumoral injection (using a dose of 2×10^11 vp (2e11 vp)) along with daily veledimex (V) (at doses of 10-20 mg) QDx15 PO with nivolumab intravenous infusions (at doses of 1-3 mg/kg) at Day (−)7 (i.e., 7 days prior to administration of Ad+V), at Day 15 (after administration of Ad+V), then Q2W (i.e., once every 2-weeks).

[3] = Veledimex levels in blood and CSF after oral gavage (blood-brain barrier crossing); format: in vivo, C57BL/6 mice; conditions: PO 450 or 1,200 mg/m2/day; normal C57BL/6 and orthotopic GL-261 glioma mice; 24 hours post-veledimex
Experimental: To generate orthotopic GL-261 glioma mice, a group of C57BL/6 mice received 1×10^5 GL-261 glioma cells via intracranial injection ˜2 mm distal to the intersection of the coronal and sagittal suture. On day 5, the animals were randomly assigned to one of the treatment groups. GL-261, a murine glioma tumor cell line, was purchased from American Type Culture Collection (Manassas, Va.).
Veledimex was administered to normal C57BL/6 mice or orthotopic GL-261 glioma mice via oral gavage (PO) at 450 mg/m2/day or 1,200 mg/m^2/day. Terminal blood and CSF were collected for normal C57BL/6 mice or orthotopic GL-261 glioma mice after 2 days of treatment, and for orthotopic GL-261 glioma mice after 13 days of treatment.

[4] = Phase 1 Main Study: veledimex in plasma and tumor; format: in vivo, human
Experimental: FIGS. 21A-21D show a series of graphs depicting veledimex, IL-12 and IFN-γ concentrations upon treatment with veledimex. […] Each symbol represents plasma from a single patient. […] Veledimex was administered to each patient approximately 3 hours before the start of the craniotomy. Serum and tumor at the time of resection were then assayed for veledimex levels.
This study is investigating two intratumoral Ad-RTS-hIL-12 doses (2×10^11 vp or 1×10^12 vp) and escalating veledimex doses (10 mg to 40 mg) to determine the safe and tolerable dose based on the safety profiles observed in the presence of variable corticosteroid exposure. Group 1 received one veledimex dose before a standard-of-care resection procedure, Ad was administered by freehand intratumoral injection, then continued with oral V QD for 14 days. Subjects not scheduled for tumor resection (Group 2) received Ad-RTS-hIL-12 (2×10^11 vp or 1×10^12 vp) by stereotactic injection and then continued on oral veledimex for 14 days.

[5] = Cohort 1: Ad + V (10 mg) Nivolumab (1 mg/kg) N = 3
[6] = Cohort 2: Ad + V (10 mg) Nivolumab (3 mg/kg) N = 3
[7] = Cohort 3: Ad + V (20 mg) Nivolumab (3 mg/kg) N = 2

Molecule: Cn1nnc2c(C(N)=O)ncn2c1=O [temozolomide]
mOS (GL-261 medullary glioma): 25 days

Molecule: Nivolumab: antibody that binds PD-1; heavy and light chains SEQ ID NO: 10 and 11
Related ≥ Grade 3 AEs: ALT increased [1, 5]: 0
Related ≥ Grade 3 AEs: Brain oedema (cerebral edema) [1, 5]: 1 (33%)
Related ≥ Grade 3 AEs: Lipase increased [1, 5]: 0
Related ≥ Grade 3 AEs: Lymphocyte count Decreased [1, 5]: 0
Related ≥ Grade 3 AEs: ALT increased [1, 6]: 0
Related ≥ Grade 3 AEs: Brain oedema (cerebral edema) [1, 6]: 0
Related ≥ Grade 3 AEs: Lipase increased [1, 6]: 1 (33%)
Related ≥ Grade 3 AEs: Lymphocyte count Decreased ([1]; Cohort 2: Ad + V (10 mg) Nivolumab (3 mg/kg) N = 3, one AE related to both): 1 (33%)*
Related ≥ Grade 3 AEs: ALT increased [1, 7]: 0
Related ≥ Grade 3 AEs: Brain oedema (cerebral edema) [1, 7]: 0
Related ≥ Grade 3 AEs: Lipase increased [1, 7]: 0
Related ≥ Grade 3 AEs: Lymphocyte count Decreased [1, 7]: 0
related SAEs ([1]; Cohorts 1-3): One SAE of brain oedema (cerebral edema) was considered related to nivolumab alone
peripheral IL-12 at Day 0 (median) (IL-12; after nivolumab alone (Day -7 dose), median baseline 0.9 pg/ml): 1.0 pg/mL
impact of pre-dosing on cytokine levels prior to Ad+V (IL-12; nivolumab Day -7): did not have an impact on cytokine levels
Tregs (FoxP3) at Day 0 ([2]; baseline 1.5%): 0.8%
peripheral cytotoxic T cells CD3+CD8+ at Day 0 ([2]; median baseline 23%): 26%

crossing of the blood-brain barrier by orally administered veledimex [3]: crosses the blood-brain barrier
plasma and tumor V peak PK levels versus dose ([4]; V 10-40 mg): dose dependent
Kp ([4]; human, tumor (relative to plasma), oral, Main Study, tumor vs plasma at resection, about 3 hours after V, read-out: V tumor penetration): ~0.4
crossing of the blood-brain-barrier ([4]; rGBM patients): crosses the blood-brain-barrier
Molecule: CCC[C@@H](N(NC(=O)c1cccc(OC)c1CC)C(=O)c1cc(C)cc(C)c1)C(C)(C)C [veledimex, (R)—N′-(3,5-dimethylbenzoyl)-N′-(2,2-dimethylhexan-3-yl)-2-ethyl-3-methoxybenzohydrazide]

From patent publication US20210395773A1, “IN VIVO CONTROLLED COMBINATION THERAPY FOR TREATMENT OF CANCER” (PRECIGEN, INC., priority 2018, published 2021)
